Entries after “also recorded” stand apart in the source; their conditions may differ. Like-named read-outs stand apart in the source and are kept apart here.
Experiments:
cA4 [1] = assay: Radiolabelled cA4 cleavage assay, single turnover kinetics; type: biochemical; conditions: for cA4 cleavage / ring nuclease activity in vitro: 37° C., recombinant protein (FIG. 5); for cA4 cleavage single turnover rate constant: 50° C., 4 μM protein dimer, Csx1 buffer
[2] = system: recombinant type III CRISPR system from Mycobacterium tuberculosis; type: cell-based, Escherichia coli
[3] = system: HEPN ribonuclease StCsm6′; assay: cA6 degradation, deactivation of cA6-activated HEPN ribonuclease StCsm6′; type: biochemical, S. thermophilus
Experimental: Ring nuclease (Tsac_2833, 2 μM dimer) was incubated with the indicated concentration of cA6 for 60 min at 37° C. […] Control c1 is RNA in the absence of protein, c2 is RNA incubated with Tsac_2833 and c3 is RNA incubated with StCsm6′ in the absence of cA6 activator. vRN—ring nuclease.
Ring nuclease (SIRV1_114a, 2 μM; labelled “vRN”) was incubated with the indicated concentration of cA6 for 20 or 60 min at 70° C. and cooled on ice for 5 min.
When investigating cA6 degradation capacity, THSA-485A Tsac_2833 (2 μM dimer) was incubated with cA6 (50-0.5 μM) for 20 min or 60 min at 37° C. prior to adding 0.5 μM dimer StCsm6′ and 50 nM radio-labelled RNA A1. Reactions were then left to proceed for 60 min at 37° C. before quenching reactions by phenol-chloroform extraction and visualising RNA degradation by phosphor imaging following denaturing PAGE.
A deactivation assay was carried out using the S. thermophilus HEPN ribonuclease StCsm6′, a ribonuclease activated by cA6.

[4] = molecular target: T1, HEPN family ribonuclease Csx1 (Saccharolobus solfataricus, UniProt Q97YD5); assay: Deactivation of HEPN nuclease Csx1 in coupled assay with Csm complex and A26 RNA target; type: biochemical, Sulfolobus solfataricus
T1 sequence (Q97YD5 1-377): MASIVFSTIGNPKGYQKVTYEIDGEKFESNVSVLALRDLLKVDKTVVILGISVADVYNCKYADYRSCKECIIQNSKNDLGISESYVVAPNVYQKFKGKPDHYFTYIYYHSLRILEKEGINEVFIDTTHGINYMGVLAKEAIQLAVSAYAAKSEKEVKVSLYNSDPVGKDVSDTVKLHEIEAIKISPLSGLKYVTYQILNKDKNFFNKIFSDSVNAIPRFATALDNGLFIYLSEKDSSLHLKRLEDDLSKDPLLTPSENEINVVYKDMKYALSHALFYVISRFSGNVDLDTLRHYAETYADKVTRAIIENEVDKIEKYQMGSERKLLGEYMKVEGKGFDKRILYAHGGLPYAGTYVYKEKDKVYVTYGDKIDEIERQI
Experimental: FIG. 4. Comparison of the kinetics of the ring nucleases disclosed herein and cellular ring nucleases in deactivating the type III CRISPR defence. • a) Top panel is a phosphor image of denaturing polyacrylamide gel electrophoresis showing activation of HEPN family ribonuclease Csx1 (0.5 μM dimer) and consequent radioactively labelled RNA A1 cleavage in a coupled assay containing type III Csm CRISPR complex carrying A26 CRISPR RNA when challenged by indicated amounts of A26 RNA target to initiate cA4 synthesis. RNA A1 is not a target of Csm. Each set of three lanes after the control (c) reaction with Csx1 and labelled non-target RNA alone, is first in the absence and then the presence the ring nuclease SIRV1 gp29 (labelled “vRN”) or S. solfataricus cellular ring nuclease (cRN) Sso2081 (2 μM dimer), respectively. Whereas the SIRV1 gp29 ring nuclease is able to degrade all cA4 generated with up to 50 nM RNA A26 target, the cellular ring nuclease deactivates Csx1 and protects substrate RNA from degradation only when less than 5 nM A26 RNA target is used to initiate cA4 synthesis. Bottom panel is a phosphor image of thin-layer chromatography with reactions as above but visualizes cA4 production, by a-ATP incorporation, in the presence of indicated amounts of A26 RNA target and absence or presence of either SIRV1 gp29 or cellular ring nuclease. […]

cA6 = assay: Substrate specificity of ring nuclease by TLC: cA6; type: biochemical; conditions: multiple-turnover, 49 μM protein, 450 μM substrate, 70° C.
Experimental: (§1) The reactions were then deproteinised by phenol-chloroform extraction followed by chloroform extraction and products separated by TLC. Substrate degradation was visualised and imaged under short-wave ([…]) UV light.

cA4 [5] = assay: cA4 degradation capacity: Csx1 activation by HPLC-purified cA4 and deactivation by ring nuclease; type: biochemical; conditions: ring nuclease 2 μM dimer, Csx1 0.5 μM dimer
Experimental: FIG. 4. […] RNA A1 is not a target of Csm. Each set of three lanes after the control (c) reaction with Csx1 and labelled non-target RNA alone, is first in the absence and then the presence the ring nuclease SIRV1 gp29 (labelled “vRN”) or S. solfataricus cellular ring nuclease (cRN) Sso2081 (2 μM dimer), respectively. Whereas the SIRV1 gp29 ring nuclease is able to degrade all cA4 generated with up to 50 nM RNA A26 target, the cellular ring nuclease deactivates Csx1 and protects substrate RNA from degradation only when less than 5 nM A26 RNA target is used to initiate cA4 synthesis. Bottom panel is a phosphor image of thin-layer chromatography with reactions as above but visualizes cA4 production, by a-ATP incorporation, in the presence of indicated amounts of A26 RNA target and absence or presence of either SIRV1 gp29 or cellular ring nuclease. Csx1 deactivation correlated with complete cA4 degradation. • b) Denaturing gel electrophoresis visualising activation of Csx1 (0.5 μM dimer) by indicated amounts of HPLC-purified cA4 (BIOLOG Life Sciences) and its subsequent deactivation when either SIRV1 gp29 ring nuclease (“vRN”) or cellular ring nuclease (2 μM dimer) is present to degrade cA4. The SIRV1 gp29 ring nuclease degrades 100-fold more cA4 than the cellular ring nuclease. Control reactions (c) show RNA incubated with SIRV1 gp29 or Csx1 in the absence of cA4, respectively. […]

cyclic-di-GMP = assay: Substrate specificity of ring nuclease by TLC: cyclic-di-GMP; type: biochemical; conditions: multiple-turnover, 49 μM protein, 450 μM substrate, 70° C.
Experimental: as §1

cyclic-AMP = assay: Substrate specificity of ring nuclease by TLC: cyclic-AMP; type: biochemical; conditions: multiple-turnover, 49 μM protein, 450 μM substrate, 70° C.
Experimental: as §1

cA4 [6] = assay: Substrate specificity of ring nuclease by TLC: cA4; type: biochemical; conditions: multiple-turnover, 49 μM protein, 450 μM substrate, 70° C.
Experimental: as §1

cyclic-CAMP = assay: Substrate specificity of ring nuclease by TLC: cyclic-CAMP; type: biochemical; conditions: multiple-turnover, 49 μM protein, 450 μM substrate, 70° C.
Experimental: as §1

cyclic-di-AMP = assay: Substrate specificity of ring nuclease by TLC: cyclic-di-AMP; type: biochemical; conditions: multiple-turnover, 49 μM protein, 450 μM substrate, 70° C.
Experimental: as §1

B1: Crenothrix polyspora: DUF1874 protein, sequence WP_087145848.1 from the bacterium Crenothrix polyspora, SEQ ID NO. 16 (protein, listed as Crenothrix polyspora)
chain: MTLFIINAPILTSYGDWRFEGPLSIDKTRKLLREGFTSAIGHAASAEMLARLLAMDIPVNRIAITMEAGDRALILRLLQRLPEGKVLNHHEMMATPFELALLTKLK
cA4 [1]
  cA4 cleavage / ring nuclease activity in vitro: cleave cA4 rapidly

B2: THSA-485A Tsac_2833: DUF1874 ring nuclease from Thermoanaerobacterium bacteriophage THSA-485A, SEQ ID NO. 6 (protein, listed as Archael virus)
chain: MFIANAFSLQMLSQFPAHIDIEEVATSAVAKLDLQSAIGHADTAVVLSGILGKDIESNRVNVQLQPGDSLIVAQLMGGRLPEGSTTLPAGFSFKFFKVTVQA
cA4 [1]
  cA4 cleavage / ring nuclease activity in vitro: cleave cA4 rapidly
[2]
  effect on cA4-mediated type III CRISPR immunity (plasmid transformation): overcomes type III CRISPR immunity
[2]; listed as Tsac_2833
  effect on cA4-mediated type III CRISPR immunity (plasmid transformation): effective in neutralising a cA4-mediated CRISPR defence; also recorded: reduced immunity for cA4-mediated CRISPR defence
[3]; 2 μM dimer pre-incubated with cA6 at 37° C.
  cA6 degradation: protection of substrate RNA from StCsm6′: protection of the substrate RNA; also recorded: Clear inhibition of substrate RNA cleavage

B3: B. subtilis yddf: DUF1874 protein encoded by gene yddF of Bacillus subtilis, prophage origin, SEQ ID NO. 15 (protein, listed as Archael virus)
chain: MEIAFLNSLVVTSPGFYKAEKITLDEVKQWLKHYDGRYKSFIGHKSTAQFLQKLLGIRIEQNRKTFRHMKYQKAICFSLYERYPENVLLTQRDLEKARYQFYLLTRLD
cA4 [1]
  cA4 cleavage / ring nuclease activity in vitro: cleave cA4 rapidly

B4: SIRV1 gp29: DUF1874 ring nuclease, ORF 114a of Sulfolobus islandicus rudivirus 1 (SIRV1), SEQ ID NO. 7 (protein, listed as Archael virus)
chain: MNKVYLANAFSINMLTKFPTKVVIDKIDRLEFCENIDNEDIINSIGHDSTIQLINSLCGTTFQKNRVEIKLEKEDKLYVVQISQRLEEGKILTLEEILKLYESGKVQFFEIIVD
cA4 [1]
  cA4 cleavage single turnover rate constant: 7 ± 1 min⁻¹
cA4 [1]; listed as SIRV1 gp29 (orf 114a)
  cA4 cleavage single turnover rate constant: 7.4 min⁻¹
[4]; over a range of RNA and cA4 concentrations (FIG. 4)
  de-activation of cA4-activated HEPN nuclease Csx1 compared with cRN Sso2081: far more effectively
[4]; ring nuclease 2 μM dimer, Csx1 0.5 μM dimer, 70° C.
  amount of A26 RNA target up to which all generated cA4 is degraded / Csx1 deactivated: up to 50 nM
cA6
  degradation of cA6 (TLC): rapidly degrades; also recorded: specific for the degradation
cA4 [5]
  amount of cA4 degraded relative to cellular ring nuclease: 100 fold
cyclic-di-GMP
  degradation of cyclic-di-GMP (TLC): does not degrade; also recorded: does not recognise
cyclic-AMP
  degradation of cyclic-AMP (TLC): does not degrade
cA4 [6]
  degradation of cA4 (TLC): rapidly degrades; also recorded: specific for the degradation
[3]; 2 μM pre-incubated with cA6 for 20 or 60 min at 70° C.
  cA6 degradation: protection of substrate RNA from StCsm6′: clear inhibition of substrate RNA cleavage
[3]; 2 μM pre-incubated with cA6 for 20 or 60 min at 70° C., listed as SIRV1_114a
  cA6 degradation: protection of substrate RNA from StCsm6′: protection of the substrate RNA
cyclic-CAMP
  degradation of cyclic-CAMP (TLC): does not degrade; also recorded: does not recognise
cyclic-di-AMP
  degradation of cyclic-di-AMP (TLC): does not degrade; also recorded: does not recognise

— patent publication US20230167423A1, “RING NUCLEASE” (priority 2019, published 2023)
